Results: patent US20200095324A1 (POTENZA THERAPEUTICS, published 2020)

T1: human TIGIT (human, UniProt Q495A1 22-141)
T1 construct: Expressed in HEK-293 cells and secreted as soluble protein; also called hTIGIT; monomeric wild type human TIGIT; not shown: His tag (purified on Ni-NTA, called 'human TIGIT HIS')
T1 sequence: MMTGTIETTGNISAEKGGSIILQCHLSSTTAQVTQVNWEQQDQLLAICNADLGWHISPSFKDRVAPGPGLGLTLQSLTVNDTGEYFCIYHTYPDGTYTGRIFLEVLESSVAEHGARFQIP


What was measured:
human TIGIT [1] = target: T1, human TIGIT; assay: BLI (Octet), antibody captured on anti-human Fc sensors
Protocol: (§1) To identify the epitope for MAB10 binding to human TIGIT, 18 alanine single point mutations were made. Proteins were expressed in HEK-293 cells, secreted as soluble protein, purified on Ni-NTA resin, and characterized by SDS-PAGE. Binding was assessed by Bio-Layer Interferometry (BLI) using the Octet platform. MAB10 was captured on anti-human Fc sensors, washed, and exposed to either monomeric wild type human TIGIT or to one of a selection of point mutants.
To identify the epitope for MAB2, MAB15, and MAB21 binding to human TIGIT, binding to 7 alanine single point mutations was assessed using BLI as described in the preceding paragraph.

human TIGIT [2] = target: T1, human TIGIT; assay: BLI (Octet), MAB10 captured on anti-human Fc sensors, monomeric wild type human TIGIT in solution
Protocol: as §1

human TIGIT [3] = target: T1, human TIGIT; assay: complex formation, size exclusion chromatography and crystallisation
Protocol: The binding epitope of MAB10 was also identified through crystallographic studies. MAB10 Fab was complexed with human TIGIT, purified by size exclusion chromatography, and concentrated to 10 mg/ml. Crystals were grown out of 14% PEG4000, 0.1M MES pH 6, 10 mM β-nicotinamide adenine dinucleotide hydrate, 0.5% n-dodecyl-β-D-maltoside. X-ray data were collected at Argonne National Laboratories (GM/CA CAT 23ID-D) and processed using CCP4 (Collaborative Computational Project No. 4, Software for Macromolecular X-Ray Crystallography) and Phenix (Python-based Hierarchical ENvironment for Integrated Xtallography). TIGIT residues within a contact distance of 3.8 Å from the heavy and light chain were considered part of the binding epitope and include T55, Q56, L65, D72, L73, H76, I77, S78, P79 and H111.

| Binder | binding result (human TIGIT [1]) | further results |
| --- | --- | --- |
| MAB21 (antibody, human IgG4 S228P, kappa, V domains shown, also called MAB21-IgG4) VH: QVQLVQSGAEVKKPGASVKVSCKASGYTFTSHYMGWVRQAPGQGLEWMGIINPSMGATSYTQKFRGRVTMTRDTSTSTVYMELSSLRSEDTAVYYCARLHVSGSYYPAYLDYWGQGTMVTVSS VL: EIVMTQSPATLSVSPGERATLSCRASQSVSSNLAWYQQKPGQAPRHLIYGASTRATGIPARFSGSGSGTEFTLTISSLQSEDFAVYYCQQYIVFPWTFGGGTKVEIKR | binds | – |
| MAB2 (antibody, human IgG4 S228P, kappa, V domains shown, also called MAB2-IgG4) VH: QLQLQESGPGLVKPSETLSLTCTVSGGSISSSKYYWGWIRQPPGKGLEWIGSIYYSGSTFYNPSLKSRVTISVDTSKNQFSLKLSSVTAADTAVYYCARDANYYGSAWAFDPWGQGTLVTVSS VL: EIVLTQSPATLSLSPGERATLSCRASQSVSSYLAWYQQKPGQAPRLLIYDASNRATGIPARFSGSGSGTDFTLTISSLEPEDFAVYYCQQHFNLPTFGGGTKVEIKR | binds | – |
| MAB10 (antibody, human IgG4 S228P, kappa, V domains shown, also called MAB10-IgG4; anti-TIGIT antibody MAB10) VH: QVQLQESGPGLVKPSQTLSLTCTVSGGSIESGLYYWGWIRQPPGKGLEWIGSIYYSGSTYYNPSLKSRATISVDTSKNQFSLKLSSVTAADTAVYYCARDGVLALNKRSFDIWGQGTMVTVSS VL: EIVLTQSPGTLSLSPGERATLSCRASQSVSSSYLAWYQQKPGQAPRLLIYGASSRATGIPDRFSGSGSGTDFTLTISRLEPEDFAVYYCQQHTVRPPLTFGGGTKVEIKR | – | binding result (human TIGIT [2]): binds |
| MAB10 Fab (Fab, V domains shown, Fab of MAB10 used for crystallography) VH: QVQLQESGPGLVKPSQTLSLTCTVSGGSIESGLYYWGWIRQPPGKGLEWIGSIYYSGSTYYNPSLKSRATISVDTSKNQFSLKLSSVTAADTAVYYCARDGVLALNKRSFDIWGQGTMVTVSS VL: EIVLTQSPGTLSLSPGERATLSCRASQSVSSSYLAWYQQKPGQAPRLLIYGASSRATGIPDRFSGSGSGTDFTLTISRLEPEDFAVYYCQQHTVRPPLTFGGGTKVEIK | – | binding result (human TIGIT [3]): binds |
| MAB15 (antibody, human IgG4 S228P, kappa, V domains shown, also called MAB15-IgG4) VH: QVQLVQSGAEVKKPGASVKVSCKASGYTFREYYMHWVRQAPGQGLEWMGIINPSIGLTSYARKFQGRVTMTRDTSTSTVYMELSSLRSEDTAVYYCARGGRTTWIGAFDIWGQGTMVTVSS VL: EIVMTQSPATLSVSPGERATLSCRASQSVSSNLAWYQQKPGQAPRLLIYGASTRATGIPARFSGSGSGTEFTLTISSLQSEDFAVYYCQQYVVWPPLTFGGGTKVEIKR | binds | – |
